# In IntAct's records for PubMed 26320582:
# Target: tom1_human TOM1 (UniProt O60784)
# Sequence (O60784 whole entry): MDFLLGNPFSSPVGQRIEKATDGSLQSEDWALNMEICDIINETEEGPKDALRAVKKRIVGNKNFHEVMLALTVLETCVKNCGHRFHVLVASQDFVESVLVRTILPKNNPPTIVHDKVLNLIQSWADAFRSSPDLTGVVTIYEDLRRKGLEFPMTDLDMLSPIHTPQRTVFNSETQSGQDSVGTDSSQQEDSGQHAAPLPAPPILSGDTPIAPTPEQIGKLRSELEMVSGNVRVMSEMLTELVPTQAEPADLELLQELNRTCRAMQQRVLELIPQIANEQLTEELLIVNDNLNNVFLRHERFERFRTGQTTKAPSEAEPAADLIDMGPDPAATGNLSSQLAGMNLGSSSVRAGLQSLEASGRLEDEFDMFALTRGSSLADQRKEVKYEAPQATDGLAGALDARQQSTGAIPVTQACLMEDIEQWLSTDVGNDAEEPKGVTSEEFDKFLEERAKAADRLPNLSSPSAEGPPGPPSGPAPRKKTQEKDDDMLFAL
row,Substance,effect of a mutation on the interaction
1,Toll-interacting protein (Homo sapiens) (from UniProt Q9H0E2-1) D20A;R23A,decreasing interaction strength
2,Toll-interacting protein (Homo sapiens) (from UniProt Q9H0E2-1) F21A,decreasing interaction strength
3,Toll-interacting protein (Homo sapiens) (from UniProt Q9H0E2-1) R9A;V12A,decreasing interaction strength
